Experimental data published in paper PMC2173603.

Target: L1-CFP (CFP tagged to the COOH terminus of human L1-CAM) (human) (UniProt P32004)
Test: FRET or BRET

UniProt P32004, sequence (P32004 20-1257): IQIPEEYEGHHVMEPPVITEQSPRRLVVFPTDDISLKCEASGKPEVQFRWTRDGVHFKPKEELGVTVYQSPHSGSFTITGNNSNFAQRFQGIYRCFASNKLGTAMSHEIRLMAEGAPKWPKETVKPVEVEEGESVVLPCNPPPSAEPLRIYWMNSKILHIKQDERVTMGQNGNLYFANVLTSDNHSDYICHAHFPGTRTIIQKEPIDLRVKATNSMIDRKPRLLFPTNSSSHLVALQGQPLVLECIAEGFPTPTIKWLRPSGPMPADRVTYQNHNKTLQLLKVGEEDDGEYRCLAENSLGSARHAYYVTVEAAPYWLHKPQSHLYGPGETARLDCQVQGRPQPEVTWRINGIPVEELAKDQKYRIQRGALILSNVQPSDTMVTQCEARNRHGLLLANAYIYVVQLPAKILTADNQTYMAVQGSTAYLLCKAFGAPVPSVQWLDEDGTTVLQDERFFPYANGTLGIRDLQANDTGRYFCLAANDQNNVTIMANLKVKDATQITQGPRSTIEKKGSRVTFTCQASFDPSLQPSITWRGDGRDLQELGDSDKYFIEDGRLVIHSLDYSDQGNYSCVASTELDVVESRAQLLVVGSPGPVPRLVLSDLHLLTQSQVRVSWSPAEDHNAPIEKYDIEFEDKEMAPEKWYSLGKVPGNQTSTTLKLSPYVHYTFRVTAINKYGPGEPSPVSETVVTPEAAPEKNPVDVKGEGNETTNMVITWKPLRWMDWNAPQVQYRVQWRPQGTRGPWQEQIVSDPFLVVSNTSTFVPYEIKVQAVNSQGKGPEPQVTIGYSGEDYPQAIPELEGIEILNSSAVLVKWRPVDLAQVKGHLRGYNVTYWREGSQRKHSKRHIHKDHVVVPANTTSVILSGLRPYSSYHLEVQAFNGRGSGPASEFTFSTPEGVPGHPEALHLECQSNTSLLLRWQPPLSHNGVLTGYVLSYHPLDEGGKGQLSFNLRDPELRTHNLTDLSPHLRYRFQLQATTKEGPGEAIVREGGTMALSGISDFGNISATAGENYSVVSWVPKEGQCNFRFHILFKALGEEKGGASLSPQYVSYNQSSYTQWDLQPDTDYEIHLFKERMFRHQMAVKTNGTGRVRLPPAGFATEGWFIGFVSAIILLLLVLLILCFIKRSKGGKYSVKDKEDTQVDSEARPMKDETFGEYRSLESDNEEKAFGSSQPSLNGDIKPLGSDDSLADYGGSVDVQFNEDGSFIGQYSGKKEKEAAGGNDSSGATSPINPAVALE

With “Venus-ankyrinB (Venus tagged to the NH2 terminus of human ankyrinB) (natural protein)” the percent of ankyrinB clusters with FRET^E >8% was 29.4%.
